Assay results taken from patent publication US7081343.

Biological target: T7-RelA (UniProt Q04206)
Sequence (Q04206 whole entry): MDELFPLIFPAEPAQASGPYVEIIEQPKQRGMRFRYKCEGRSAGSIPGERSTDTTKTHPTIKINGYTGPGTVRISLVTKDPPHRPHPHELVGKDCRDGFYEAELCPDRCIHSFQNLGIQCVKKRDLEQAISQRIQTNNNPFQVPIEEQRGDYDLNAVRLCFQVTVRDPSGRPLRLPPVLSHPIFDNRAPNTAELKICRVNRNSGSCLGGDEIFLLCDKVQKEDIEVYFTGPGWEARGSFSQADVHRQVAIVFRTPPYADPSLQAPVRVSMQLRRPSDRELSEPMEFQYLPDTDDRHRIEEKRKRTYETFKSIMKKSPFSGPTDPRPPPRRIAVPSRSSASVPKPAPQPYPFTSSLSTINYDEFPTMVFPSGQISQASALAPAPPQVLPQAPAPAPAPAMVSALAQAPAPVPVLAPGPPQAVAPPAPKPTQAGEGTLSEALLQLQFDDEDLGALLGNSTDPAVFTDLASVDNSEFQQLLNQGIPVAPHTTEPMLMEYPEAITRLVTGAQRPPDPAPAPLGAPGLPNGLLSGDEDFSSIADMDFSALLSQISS

Row | Substance | acetylation of T7-RelA (anti-T7 immunoprecipitation, anti-acetylated lysine blot)
1 | CBP | Co-expression of either p300 or CBP with RelA produced dose related acetylation of T7-Rel A
2 | p300 | Co-expression of either p300 or CBP with RelA produced dose related acetylation of T7-Rel A
